{"source": "patent US20230002480A1", "assay_in_all_cases": "cell-based or functional assay", "key": {"[1]": {"molecular_target": "HIV-1 Env of pseudovirus Ce1176_A3 (HIV-1)"}, "[2]": {"molecular_target": "HIV-1 Env of pseudovirus 231965.c01 (HIV-1)"}, "[3]": {"molecular_target": "HIV-1 Env of pseudovirus Q842.d12 (HIV-1)"}, "[4]": {"molecular_target": "HIV-1 Env of pseudovirus Ce703010054_2A2 (HIV-1)"}, "[5]": {"molecular_target": "HIV-1 Env of pseudovirus 7030102001E5(Rev-) (HIV-1)"}, "[6]": {"molecular_target": "HIV-1 Env of pseudovirus T250-4 (HIV-1)"}, "[7]": {"molecular_target": "HIV-1 Env of pseudovirus P0402_c2_11 (HIV-1)"}, "[8]": {"molecular_target": "HIV-1 Env of pseudovirus 6545.v4.c1 (HIV-1)"}, "[9]": {"molecular_target": "HIV-1 Env of pseudovirus 3301.v1.c24 (HIV-1)"}, "[10]": {"molecular_target": "HIV-1 Env of pseudovirus ZM233M.PB6 (HIV-1)"}, "[11]": {"molecular_target": "HIV-1 Env of pseudovirus SC05_8C11_2344 (HIV-1)"}, "[12]": {"molecular_target": "HIV-1 Env of pseudovirus T278-50 (HIV-1)"}, "[13]": {"molecular_target": "HIV-1 Env of pseudovirus T251-18 (HIV-1)"}, "[14]": {"molecular_target": "HIV-1 Env of pseudovirus 6811.v7.c18 (HIV-1)"}, "[15]": {"molecular_target": "HIV-1 Env of pseudovirus 249M B10 (HIV-1)"}, "[16]": {"molecular_target": "HIV-1 Env of pseudovirus Ce1086_B2 (HIV-1)"}, "[17]": {"molecular_target": "HIV-1 Env of pseudovirus X1254_c3 (HIV-1)"}, "[18]": {"molecular_target": "HIV-1 Env of pseudovirus ZM135M.PL10a (HIV-1)"}, "[19]": {"molecular_target": "HIV-1 Env of pseudovirus 1012_11_TC21_3257 (HIV-1)"}, "[20]": {"molecular_target": "HIV-1 Env of pseudovirus 1006_11_C3_1601 (HIV-1)"}, "[21]": {"molecular_target": "HIV-1 Env of pseudovirus TRJO4551.58 (HIV-1)"}, "[22]": {"molecular_target": "HIV-1 Env of pseudovirus 1056_10_TA11_1826 (HIV-1)"}, "[23]": {"molecular_target": "HIV-1 Env of pseudovirus 6041.v3.c23 (HIV-1)"}, "[24]": {"molecular_target": "HIV-1 Env of pseudovirus Du172.17 (HIV-1)"}, "[25]": {"molecular_target": "HIV-1 Env of pseudovirus 1054_07_TC4_1499 (HIV-1)"}, "[26]": {"molecular_target": "HIV-1 Env of pseudovirus ZM53M.PB12 (HIV-1)"}, "[27]": {"molecular_target": "HIV-1 Env of pseudovirus AC10.0.29 (HIV-1)"}, "[28]": {"molecular_target": "HIV-1 Env of pseudovirus Ce704809221_1B3 (HIV-1)"}, "[29]": {"molecular_target": "HIV-1 Env of pseudovirus R2184.c04 (HIV-1)"}}, "data": [{"substance": "VRC01 (antibody)", "values": [{"measurement": "IC50, titer in TZM.bl cells", "setting": "[1]", "value": 2.25, "unit": "µg/mL"}, {"measurement": "IC80, titer in TZM.bl cells", "setting": "[1]", "value": 8.1, "unit": "µg/mL"}, {"measurement": "IC50, titer in TZM.bl cells", "setting": "[2]", "value": 0.34, "unit": "µg/mL"}, {"measurement": "IC80, titer in TZM.bl cells", "setting": "[2]", "value": 1.2, "unit": "µg/mL"}, {"measurement": "IC50, titer in TZM.bl cells", "setting": "[3]", "value": 0.03, "unit": "µg/mL"}, {"measurement": "IC80, titer in TZM.bl cells", "setting": "[3]", "value": 0.096, "unit": "µg/mL"}, {"measurement": "IC50, titer in TZM.bl cells", "setting": "[4]", "value": 0.53, "unit": "µg/mL"}, {"measurement": "IC80, titer in TZM.bl cells", "setting": "[4]", "value": 1.84, "unit": "µg/mL"}, {"measurement": "IC50, titer in TZM.bl cells", "setting": "[5]", "value": 0.54, "unit": "µg/mL"}, {"measurement": "IC80, titer in TZM.bl cells", "setting": "[5]", "value": 2.08, "unit": "µg/mL"}, {"measurement": "IC50, titer in TZM.bl cells", "setting": "[6]", "value": "> 50", "unit": "µg/mL"}, {"measurement": "IC80, titer in TZM.bl cells", "setting": "[6]", "value": "> 50", "unit": "µg/mL"}, {"measurement": "IC50, titer in TZM.bl cells", "setting": "[7]", "value": 0.21, "unit": "µg/mL"}, {"measurement": "IC80, titer in TZM.bl cells", "setting": "[7]", "value": 0.59, "unit": "µg/mL"}, {"measurement": "IC50, titer in TZM.bl cells", "setting": "[8]", "value": "> 50", "unit": "µg/mL"}, {"measurement": "IC80, titer in TZM.bl cells", "setting": "[8]", "value": "> 50", "unit": "µg/mL"}, {"measurement": "IC50, titer in TZM.bl cells", "setting": "[9]", "value": 0.14, "unit": "µg/mL"}, {"measurement": "IC80, titer in TZM.bl cells", "setting": "[9]", "value": 0.32, "unit": "µg/mL"}, {"measurement": "IC50, titer in TZM.bl cells", "setting": "[10]", "value": 2, "unit": "µg/mL"}, {"measurement": "IC80, titer in TZM.bl cells", "setting": "[10]", "value": 9.3, "unit": "µg/mL"}, {"measurement": "IC50, titer in TZM.bl cells", "setting": "[11]", "value": 0.64, "unit": "µg/mL"}, {"measurement": "IC80, titer in TZM.bl cells", "setting": "[11]", "value": 1.91, "unit": "µg/mL"}, {"measurement": "IC50, titer in TZM.bl cells", "setting": "[12]", "value": "> 50", "unit": "µg/mL"}, {"measurement": "IC80, titer in TZM.bl cells", "setting": "[12]", "value": "> 50", "unit": "µg/mL"}, {"measurement": "IC80, titer in TZM.bl cells", "setting": "[13]", "value": 11.2, "unit": "µg/mL"}, {"measurement": "IC50, titer in TZM.bl cells", "setting": "[14]", "value": 0.09, "unit": "µg/mL"}, {"measurement": "IC80, titer in TZM.bl cells", "setting": "[14]", "value": 0.26, "unit": "µg/mL"}, {"measurement": "IC50, titer in TZM.bl cells", "setting": "[15]", "value": 0.13, "unit": "µg/mL"}, {"measurement": "IC80, titer in TZM.bl cells", "setting": "[15]", "value": 0.46, "unit": "µg/mL"}, {"measurement": "IC50, titer in TZM.bl cells", "setting": "[16]", "value": 0.42, "unit": "µg/mL"}, {"measurement": "IC80, titer in TZM.bl cells", "setting": "[16]", "value": 1.44, "unit": "µg/mL"}, {"measurement": "IC50, titer in TZM.bl cells", "setting": "[17]", "value": 0.07, "unit": "µg/mL"}, {"measurement": "IC80, titer in TZM.bl cells", "setting": "[17]", "value": 0.19, "unit": "µg/mL"}, {"measurement": "IC50, titer in TZM.bl cells", "setting": "[18]", "value": 0.35, "unit": "µg/mL"}, {"measurement": "IC80, titer in TZM.bl cells", "setting": "[18]", "value": 2.7, "unit": "µg/mL"}, {"measurement": "IC50, titer in TZM.bl cells", "setting": "[19]", "value": 0.12, "unit": "µg/mL"}, {"measurement": "IC80, titer in TZM.bl cells", "setting": "[19]", "value": 0.32, "unit": "µg/mL"}, {"measurement": "IC50, titer in TZM.bl cells", "setting": "[20]", "value": 0.15, "unit": "µg/mL"}, {"measurement": "IC80, titer in TZM.bl cells", "setting": "[20]", "value": 0.39, "unit": "µg/mL"}, {"measurement": "IC50, titer in TZM.bl cells", "setting": "[21]", "value": 0.08, "unit": "µg/mL"}, {"measurement": "IC80, titer in TZM.bl cells", "setting": "[21]", "value": 0.21, "unit": "µg/mL"}, {"measurement": "IC50, titer in TZM.bl cells", "setting": "[22]", "value": 0.92, "unit": "µg/mL"}, {"measurement": "IC80, titer in TZM.bl cells", "setting": "[22]", "value": 3.28, "unit": "µg/mL"}, {"measurement": "IC50, titer in TZM.bl cells", "setting": "[23]", "value": 0.02, "unit": "µg/mL"}, {"measurement": "IC80, titer in TZM.bl cells", "setting": "[23]", "value": 0.08, "unit": "µg/mL"}, {"measurement": "IC50, titer in TZM.bl cells", "setting": "[24]", "value": "> 50", "unit": "µg/mL"}, {"measurement": "IC80, titer in TZM.bl cells", "setting": "[24]", "value": "> 50", "unit": "µg/mL"}, {"measurement": "IC50, titer in TZM.bl cells", "setting": "[25]", "value": 0.71, "unit": "µg/mL"}, {"measurement": "IC80, titer in TZM.bl cells", "setting": "[25]", "value": 2.85, "unit": "µg/mL"}, {"measurement": "IC50, titer in TZM.bl cells", "setting": "[26]", "value": 1.3, "unit": "µg/mL"}, {"measurement": "IC80, titer in TZM.bl cells", "setting": "[26]", "value": 4, "unit": "µg/mL"}, {"measurement": "IC50, titer in TZM.bl cells", "setting": "[27]", "value": 2.2, "unit": "µg/mL"}, {"measurement": "IC80, titer in TZM.bl cells", "setting": "[27]", "value": 6.5, "unit": "µg/mL"}, {"measurement": "IC50, titer in TZM.bl cells", "setting": "[28]", "value": 0.55, "unit": "µg/mL"}, {"measurement": "IC80, titer in TZM.bl cells", "setting": "[28]", "value": 2.05, "unit": "µg/mL"}, {"measurement": "IC50, titer in TZM.bl cells", "setting": "[29]", "value": 0.08, "unit": "µg/mL"}, {"measurement": "IC80, titer in TZM.bl cells", "setting": "[29]", "value": 0.32, "unit": "µg/mL"}]}]}
